The results in this text go back to patent US20160311913A1 (Amgen, published 2016).

In this assay the target is human CGRP receptor (human, UniProt Q16602 23-461; O60894 27-148). The experiment in a line: cell-based or functional assay.
Chain of human CGRP receptor (Q16602 23-461 limits assumed, chain 1 of 2): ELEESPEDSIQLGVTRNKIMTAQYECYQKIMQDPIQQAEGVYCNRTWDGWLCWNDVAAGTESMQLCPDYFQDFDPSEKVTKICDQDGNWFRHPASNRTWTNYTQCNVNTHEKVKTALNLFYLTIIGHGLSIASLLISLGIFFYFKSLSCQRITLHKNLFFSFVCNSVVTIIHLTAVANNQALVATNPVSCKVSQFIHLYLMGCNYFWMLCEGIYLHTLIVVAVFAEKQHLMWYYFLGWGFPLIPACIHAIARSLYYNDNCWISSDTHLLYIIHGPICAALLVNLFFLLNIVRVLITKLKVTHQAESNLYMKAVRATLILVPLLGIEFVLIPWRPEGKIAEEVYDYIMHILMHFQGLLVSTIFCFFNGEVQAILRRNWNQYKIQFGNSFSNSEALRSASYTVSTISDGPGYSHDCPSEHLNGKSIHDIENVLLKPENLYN
Chain of human CGRP receptor (O60894 27-148 limits assumed, chain 2 of 2): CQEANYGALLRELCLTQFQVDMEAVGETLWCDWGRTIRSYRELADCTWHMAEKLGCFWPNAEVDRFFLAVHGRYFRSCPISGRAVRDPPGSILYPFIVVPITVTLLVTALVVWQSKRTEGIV

B1: AMG 334 (antibody, human IgG2, lambda, V domains shown)
VH: QVQLVESGGGVVQPGRSLRLSCAASGFTFSSFGMHWVRQAPGKGLEWVAVISFDGSIKYSVDSVKGRFTISRDNSKNTLFLQMNSLRAEDTAVYYCARDRLNYYDSSGYYHYKYYGMAVWGQGTTVTVSS
VL: QSVLTQPPSVSAAPGQKVTISCSGSSSNIGNNYVSWYQQLPGTAPKLLIYDNNKRPSGIPDRFSGSKSGTSTTLGITGLQTGDEADYYCGTWDSRLSAVVFGGGTKLTVLG
Turning to B1, the “serum AMG 334 concentration associated with the half maximal effect (EC50) on capsaicin-induced DBF” value was determined as 0.286 mg/L and the “serum AMG 334 concentration for 50% of maximal inhibition of capsaicin-induced dermal blood flow (EC50)” value was 0.218 mg/L.
